Substitutions are numbered along the chain they refer to. Names and notes keep the numbering of the source. Each block holds one binder with its values, some of them ahead of it.
Key:
[1] = biological target: T1, rhNav1.7α + β1-β2-β3 (rhesus Nav1.7α co-expressed with Navβ1, Navβ2 and Navβ3) (rhesus monkey); assay: binding FACS; plus = higher activity than reference
T1 construct: also called rhNav1.7-beta1-beta2-beta3

huNav1.7α + β1-β2-β3 [2] = biological target: T2, huNav1.7α + β1-β2-β3 (human, UniProt Q15858 1-1988; A5A6L6 19-218; O60939 30-215; Q2KI11 23-215); assay: competition FACS vs EC25 of F103275B05(N93R), HEK FlpIn
T2 construct: also called huNav1.7-beta1-beta2-beta3; huNav1.7-β1-β2-β3

huNav1.7α + β1-β2-β3 [3] = biological target: T2, huNav1.7α + β1-β2-β3; assay: competition FACS vs EC25 of F103275B05(N93R), CHO FlpIn
rhNav1.7α + β1-β2-β3 [4] = biological target: rhNav1.7α + β1-β2-β3 (rhesus monkey); assay: cell-based or functional assay
Rhesus Nav1.7α = Rhesus Nav1.7α (rhesus, UniProt Q15858 1-1988 (human entry)); assay: cell-based or functional assay
huNav1.7α + β1-β2-β3 [5] = biological target: T2, huNav1.7α + β1-β2-β3; assay: cell-based or functional assay
huNav1.7α [6] = biological target: T3, huNav1.7α (human, UniProt Q15858 1-1988); assay: cell-based or functional assay
huNav1.7α + β1 = biological target: T4, huNav1.7α + β1 (human); assay: competition FACS vs EC25 of F103275B05(N93R), HEK
T4 construct: HEK293 cells; also called huNav1.7-beta1; huNav1.7-β1

huNav1.7α [7] = biological target: T3, huNav1.7α; assay: competition FACS vs EC25 of F103275B05(N93R), HEK
rhNav1.7α + β1-β2-β3 [8] = biological target: T5, rhNav1.7α + β1-β2-β3 (rhesus monkey); assay: competition FACS vs EC40 of F103275B05(N93R), CHO FlpIn
T5 construct: also called rhNav1.7-beta1-beta2-beta3; rhNav1.7-β1-β2-β3

B1: F010301886 (VHH)
VHH: EVQLVESGGGLVQPGGSLRLSCATTSRAFIRDVFTGWYRRVPGKERELVARIYNGGNTQYADFAKGRFSISRDNAKKMVTLRMSNLKPEDTGVYYCLFSGTINTGREYRSGDYWGQGTLVTVSS
notes: also called F0103464B09(N58Q); N58Q
EC50 fold change compared to reference [1]: 2 fold

B3: F010301892 (VHH)
VHH: B1 VHH with V33L, Q59N
notes: also called F0103464B09(V33L); V33L
EC50 fold change compared to reference [1]: 3 fold

B5: F010302378 (bispecific antibody)
chain: DVQLVESGGGLVQPGGSLRLSCAASGSIFNINSMAWYRRAPGKQRELVASSTNGGSTNYADSVKGRFTISRDNAKRVYLQMNSLTPEDTAVYYCRALLQPSIYDISRTYWGQGTLVTVSSGGGGSGGGGSGGGGSGGGGSGGGGSGGGGSGGGGSGGGGSGGGGSGGGGSEVQLVESGGGLVQAGSSLSLSCAASGRALSTYAMGWFRQAPGKEREFVARISRSGITTYYTDSVKGRFTISRDRAKDTVYLQMNSLKPEDTAIYLCAADASTNPAGYYLRNRYDYWGQGTLVTVSSGAADYKDHDGDYKDHDIDYKDDDDKGAAHHHHHH
notes: also called F0103275B05(E1D, N93R)-50GS-F0103495F09-FLAG3-HIS6
IC50 (huNav1.7α + β1-β2-β3 [2]): 12 nM
IC50 (huNav1.7α + β1-β2-β3 [3]): 10 nM
Qpatch IC50 (rhNav1.7α + β1-β2-β3 [4]): 2.6 nM
Qpatch IC50 (Rhesus Nav1.7α): 103 nM
Qpatch IC50 (huNav1.7α + β1-β2-β3 [5]): 2.3 nM
Qpatch IC50 (huNav1.7α [6]): 115 nM
IC50 (huNav1.7α + β1): 5.2 nM
IC50 (huNav1.7α [7]): 80 nM
IC50 (rhNav1.7α + β1-β2-β3 [8]): 6.6 nM

Now from value to binder:

EC50 fold change compared to reference [1]: 3 fold
B2: F010301888 (VHH)
VHH: B1 VHH with S26H, Q59N
notes: also called F0103464B09(S26H); S26H

IC50 (huNav1.7α + β1-β2-β3 [2]): 5.2 nM
IC50 (huNav1.7α + β1-β2-β3 [3]): 4.1 nM
Qpatch IC50 (rhNav1.7α + β1-β2-β3 [4]): 75 nM
Qpatch IC50 (Rhesus Nav1.7α): 104 nM
Qpatch IC50 (huNav1.7α + β1-β2-β3 [5]): 0.8 nM
Qpatch IC50 (huNav1.7α [6]): 74 nM
IC50 (huNav1.7α + β1): 140 nM
IC50 (huNav1.7α [7]): 86 nM
IC50 (rhNav1.7α + β1-β2-β3 [8]): 1.2 nM
B4: F010302377 (bispecific antibody)
chain: DVQLVESGGGLVQPGGSLRLSCAASGSIFNINSMAWYRRAPGKQRELVASSTNGGSTNYADSVKGRFTISRDNAKRVYLQMNSLTPEDTAVYYCRALLQPSIYDISRTYWGQGTLVTVSSGGGGSGGGGSGGGGSGGGGSGGGGSGGGGSGGGGSGGGGSGGGGSGGGGSEVQLVESGGGLVQAGGSLRLSCAASKSILSFAYMRWYRQAPGKQREFVASIAIGGATSYTDSVKGRFTISRDNAKNTVYLQMNSLKPEDTAVYYCSAPAGQYRGQGTLVTVSSGAADYKDHDGDYKDHDIDYKDDDDKGAAHHHHHH
notes: also called F0103275B05(E1D, N93R)-50GS-F0103492E09-FLAG3-HIS6

IC50 (huNav1.7α + β1-β2-β3 [2]): 16 nM
IC50 (huNav1.7α + β1-β2-β3 [3]): 19 nM
Qpatch IC50 (rhNav1.7α + β1-β2-β3 [4]): 131 nM
Qpatch IC50 (Rhesus Nav1.7α): 133 nM
Qpatch IC50 (huNav1.7α + β1-β2-β3 [5]): 3.4 nM
Qpatch IC50 (huNav1.7α [6]): 111 nM
IC50 (huNav1.7α + β1): 150 nM
IC50 (huNav1.7α [7]): 85 nM
IC50 (rhNav1.7α + β1-β2-β3 [8]): 4.8 nM
B6: F010302379 (bispecific antibody)
chain: DVQLVESGGGLVQPGGSLRLSCAASGSIFNINSMAWYRRAPGKQRELVASSTNGGSTNYADSVKGRFTISRDNAKRVYLQMNSLTPEDTAVYYCRALLQPSIYDISRTYWGQGTLVTVSSGGGGSGGGGSGGGGSGGGGSGGGGSGGGGSGGGGSGGGGSGGGGSGGGGSEVQLVESGGGLVQAGGSLRLSCAASGRTFSRYQMGWFRQAPGKEREFVAYISWSGSTRYVDSVKGRFTISRDNAKNTVYLQMNSLKPEDTAVYHCAAGTAGIISSRPETYDSWGQGTQVTVSSGAADYKDHDGDYKDHDIDYKDDDDKGAAHHHHHH
notes: also called F0103275B05(E1D, N93R)-50GS-F0103500E03(P14A, L108Q)-FLAG3-HIS6

From patent publication US20240002497A1 (Merck Sharp & Dohme, published 2024)
